One protein from PMC9962951, “Olive Polyphenol Oxidase Gene Family” (International Journal of Molecular Sciences, 2023) can be followed below.

Substrate in series [1]: NCCc1ccc(O)cc1
Briefly: purified protein. The class given is biochemical, Olea europaea. Conditions: monophenolase, pH 6.8, 25 °C, substrate range 0.2–7 mM.

Substrate in series [2]: CC(C)(C)c1ccc(O)c(O)c1
Briefly: purified protein. The class given is biochemical, Olea europaea. Conditions: diphenolase, 50 mM sodium phosphate pH 6.8, 1 mM SDS, 25 °C, substrate range 0.2–7 mM.

B1: OePPO3 (Olea europaea subsp. europaea) (protein)
chain: APISAPDVTTCGPADLPQGAAPTNCCPPPTGEILDFKFPPPPTTMRVRPAAHLADEAYIAKFNRAVELMRALPDDDPRSFRQQANVHCAYCDGAYDQVGFPNLELQVHNSWLFFPFHRYYLYFFERILGNLIDDPTFAMPFWNYDAPGGMHLPAIYANQNSSLYDPLRDSAHQPPAFIDLNFSGSDANTGEAQQTSRNLTIMYRQMVSNSKTPRLFFGSPYRRGEDPNPGSGSIENIPHGPVHVWTGDRTQPNFENMGNFYSAGRDPIFFAHHSNIDRMWTLWKTLGGRRQDITDPDFLDASFVFYDENAKMVRVKVRDCLDHTKLGYVYQDVEVPWLRSRPKPRISSVVRKLKKLVRANAADIPSPKDIFPAKLDQVIKVMVKRPKKKRSKKEKDELEEILIIQGIELERDVYAKFDVFINDEDDEESTPENTEFAGSFVNVPHKHKNDKKIKTNLRLSITDILEDLDAEDDQHVLVTLVPKNFGDAITVHGIKIELDD
notes: GST tag cut off with PreScission (pGEX6P.1); E. coli BL21(DE3); about 54 kDa
In general, Km refers to the concentration of substrate that gives half-maximal velocity. The term Vmax denotes the top rate of the reaction or transport when substrate is in excess. For B1, in the series “purified protein [1]”, the Michaelis-Menten constant (Km) was 700 µM and the Vmax is 2.7 µmol/min/mg. Also, in “purified protein [2]”, the Km is 800 µM and the Vmax turned out to be 130 µmol/min/mg.
